This note sets out measurements from paper PMC12622487.

The series deals with Cys32 (UniProt position 32, FSATWCGPCKM). To be noted: Reduced (free thiol) form is presumed; not explicitly stated for the pKa determination.

For “Thioredoxin-1 (native recombinant human TRX, rhTRX) (Homo sapiens)”, the pKa (as a rule, the negative logarithm of the acid dissociation constant) is recorded as 6.3.
